PMC3649970, “A Unique Spumavirus Gag N-terminal Domain with Functional Properties of Orthoretroviral Matrix and Capsid” (PLoS Pathogens, 2013)
Changes are numbered by the printed parent chain. Ends that are not written are not given here.

B1: PFV-Gag-NtD (amino terminal domain of Prototypic Foamy Virus Gag, residues 1-179) (domain or fragment)
chain: MASGSNVEEYELDVEALVVILRDRNIPRNPLHGEVIGLRLTEGWWGQIERFQMVRLILQDDDNEPLQRPRYEVIQRAVNPHTMFMISGPLAELQLAFQDLDLPEGPLRFGPLANGHYVQGDPYSSSYRPVTMAETAQMTRDELEDVLNTQSEIEIQMINLLELYEVETRALRRQLAERS
notes: source: E. coli Rosetta 2 (DE3), purified (Ni-NTA, Superdex 200 SEC); not shown: His-tag, N-terminal, kept
B2: triple substitution where Val14, Val18 and Leu21 were all substituted by serine (protein, UniProt P14349 1-179, looked up, variant V14S V18S L21S)
chain: B1 chain with V14S, V18S, L21S
modifications: N-terminal His-tag
B3: PFV-Gag-NtD: PFV-Gag residues 1–179, N-terminal His-tag fusion expressed in E. coli (protein, UniProt P14349 1-179, looked up, fragment)
chain: B1 chain
modifications: N-terminal His-tag
notes: PFV-Gag residues 1–179, N-terminal His-tag fusion expressed in E. coli
B4: Val14/Leu21 to serine (protein)
chain: B1 chain with V14S, L21S
modifications: left off: His-tag, N-terminal, state not stated
B5: Asn29 to glutamine (protein, UniProt P14349 1-179, looked up, variant N29Q)
chain: B1 chain with N29Q
modifications: N-terminal His-tag
B6: FFV-Gag-NtD: FFV Gag residues 1–154, N-terminal His-tag fusion expressed in E. coli (protein, UniProt O56860 1-154, looked up, fragment)
chain: MARELNPLQLQQLYINNGLQPNPGHGDIIAVRFTGGPWGPGDRWARVTIRLQDNTGQPLQVPGYDLEPGIINLREDILIAGPYNLIRTAFLDLEPARGPERHGPFGDGRLQPGDGLSEGFQPITDEEIQAEVGTIGAARNEIRLLREALQRLQA
modifications: N-terminal His-tag
notes: FFV Gag residues 1–154, N-terminal His-tag fusion expressed in E. coli
B7: PFV Env leader peptide residues 5-18 (peptide)
peptide: MTLQQWIIWKKMNK
notes: source: synthetic peptide, bought HPLC purified: Pepceuticals Ltd

Legend:
[1] = target: FFV-Gag-NtD (feline foamy virus Gag residues 1-154), His tag removed (feline foamy virus (FFV)); assay: AUC
[2] = target: FFV Env leader peptide 1-30 (Feline foamy virus) (UniProt O56861); assay: given as Ka; details: cited from earlier work
[3] = target: T1, PFV-Gag-NtD (Human spumaretrovirus, UniProt P14349); assay: ITC binding of Env1–20 to PFV-Gag-NtD; design: species or system Prototypic Foamy Virus (PFV); details: 1 mM Env peptide injected into 50 µM PFV-Gag-NtD, 25 mM Na-phosphate pH 6.55, 100 mM NaCl, 0.5 mM TCEP, read-out: equilibrium association constant (K) (converted)
T1 construct: HFV ht-(M1-S179); made in house; host or cells: E. coli Rosetta 2 (DE3)
T1 sequence (P14349 1-179): B1 chain
From the text: The DNA sequences coding for PFV-Gag residues 1–179 (PFV-Gag-NtD) and FFV residues 1–154 (FFV-Gag-NtD) were amplified by PCR from template plasmids pcziGag4 and pcDWF003 containing the PFV and FFV Gag genes respectively. PCR products were inserted into a pET47b expression vector (Novagen) using ligation independent cloning in order to produce N-terminal His-tag fusions with 3C protease cleavage sites. The correct sequence of expression constructs was verified by automated DNA sequencing (Beckman Coulter Genomics). His-tagged PFV- and FFV-Gag-NtD were expressed in the E. coli strain Rosetta 2 (DE3) and purified using Ni-NTA affinity (Qiagen) and size exclusion chromatography on Superdex 200 (GE healthcare). Selenium was incorporated into PFV-Gag-NtD by replacement of methionine with seleno-methionine in defined culture medium and by inhibition of methionine biosynthesis just prior to IPTG induction. Verification of the processed N-terminal methionine, correct molecular mass and degree of selenium incorporation was obtained by electrospray ionisation mass-spectrometry. Peptides comprising residues 1–20 and 5–18 from the PFV-Env leader region were purchased HPLC purified from Pepceuticals Ltd.
ITC was carried out using an ITC-200 calorimeter (MicroCal). […] Data was analysed using the Origin-based software provided by the manufacturers.

[4] = target: FFV-Gag-NtD (feline foamy virus Gag residues 1-154), His-tagged (feline foamy virus (FFV)); assay: AUC
[5] = target: FFV-Gag-NtD (feline foamy virus Gag residues 1-154), His-tagged (feline foamy virus (FFV)); assay: SEC-MALS
[6] = target: the molecule itself; assay: SEC-MALS
[7] = system: PFV Env leader peptide (Env-LP), Env1–20; assay: SV-AUC binding of PFV-Gag-NtD mutants to Env1–20 (Env-LP); design: species or system Prototypic Foamy Virus (PFV); details: for Gag-Env binding (in words): 75 µM equimolar Gag-NtD mutant and Env1–20
Description: (§1) Sedimentation velocity experiments were performed in a Beckman Optima Xl-I analytical ultracentrifuge using conventional aluminium double sector centrepieces and sapphire windows. Solvent density and the protein partial specific volumes were determined as described. Prior to centrifugation, samples were prepared by exhaustive dialysis against the buffer blank solution, 20 mM Tris-HCl, 150 mM NaCl and 0.5 mM TCEP, pH 7.5. Centrifugation was performed at 50,000 rpm and 293 K in an An50-Ti rotor. Interference data were acquired at time intervals of 180 sec at varying sample concentration (0.5–2.5 mg/ml). Data recorded from moving boundaries was analysed using both a discrete species model and in terms of the size distribution functions C(S) using the program SEDFIT [90], [91], [92]. For analysis of Env peptide binding, sedimentation velocity experiments were conducted in 3 mm pathlength centrepieces using equimolar mixtures (75 µM) of PFV-Gag-NtD and Env peptides. In these experiments, radial absorbance scans at 280 nm were also recorded along with the interference data.
Data were analysed using a general binding expression, Eq. 1. This expression relates the association constant Ka to the fraction of bound peptide θ (θ = [PL]/[Lt]) in terms of the total concentrations of peptide [Lt] and protein [Pt] and is a modification of the formulae employed in [95], [96]. [drawing 1] (1) In sedimentation velocity experiments θ was determined from the integrated absorbance of the 3S species in the C(S) function that best fits the sedimentation data. As equimolar ratios of peptide and protein were employed ([Lt] = [Pt]) Eq. 1 can be simplified and equilibrium association constants determined from Eq. 2. [drawing 2] (2)

[8] = Sedimentation velocity AUC of Gag-NtDs; type: physicochemical; details: for ƒ/ƒ0 (D20,w): frictional ratio calculated from D20,w; for ƒ/ƒ0 (D20,w) / ƒ/ƒ0 (S20,w): discrete component analysis; for ƒ/ƒ0 (S20,w): frictional ratio calculated from S20,w; for sedimentation coefficient S20,w: no concentration dependency over the range measured; for D20,w (×10^7) / Mw C(S) / S20,w (×10^13): sedimentation velocity; for D20,w (×10^7) / S20,w (×10^13): 293 K, pH 7.5, Crange 20–90 µM (PFV), 30–130 µM (FFV); for Mw C(S): C(S) analysis; for S20,w (×10^13): discrete component analysis, 50,000 rpm; for Mw (S/D): weight averaged molecular weight from discrete component analysis; for ƒ/ƒ0 C(S): weight-averaged frictional ratio from best fit C(S) distribution function
Description: as §1

[9] = Sedimentation equilibrium AUC of Gag-NtDs; type: physicochemical; details: for weight averaged molecular weight, sedimentation equilibrium: multispeed, global fit with single ideal molecular species model; for Mw (sedimentation equilibrium): weight averaged, Global SE analysis, pH 7.5
Description: Sedimentation equilibrium experiments were performed in a Beckman Optima XL-I analytical ultracentrifuge using charcoal filled Epon six-channel centrepieces in an An-50 Ti rotor. Prior to centrifugation, samples were dialyzed exhaustively against the buffer blank, 20 mM Tris-HCl, pH 7.5, 150 mM NaCl, 0.5 mM TCEP. After centrifugation for 18 h, interference data was collected 2-h intervals until no further change in the profiles was observed. The rotor speed was then increased and the procedure repeated. Data were collected on samples of different concentrations of FFV- and PFV-Gag-NtD (14–100 µM) at three speeds and the program SEDPHAT [93], [94] was used to determine weight-averaged molecular masses by nonlinear fitting of individual multi-speed equilibrium profiles (A versus r) to a single-species ideal solution model.

[10] = SEC-MALLS solution molecular weight of Gag-NtDs; type: physicochemical; details: Superdex 200 10/300 GL, 20 mM Tris-HCl, 150 mM NaCl, 0.5 mM TCEP, pH 8.0; 12-1.5 mg/ml, concentration invariant
Description: Size exclusion chromatography coupled multi-angle laser light scattering (SEC-MALLS) was used to determine the molar mass of FFV- and PFV-Gag-Ntd. Samples ranging from 1.5 to 12.0 mgml^−1 were applied in a volume of 100 µl to a Superdex 200 10/300 GL column equilibrated in 20 mM Tris-HCl, 150 mM NaCl and 0.5 mM TCEP, pH 8.0, at a flow rate of 0.5 ml/min. The scattered light intensity and the protein concentration of the column eluate were recorded using a DAWN-HELEOS laser photometer and OPTILAB-rEX differential refractometer respectively. The weight-averaged molecular mass of material contained in chromatographic peaks was determined from the combined data from both detectors using the ASTRA software version 6.0.3 (Wyatt Technology Corp., Santa Barbara, CA, USA).

[11] = target: B1; assay: AUC; sedimentation velocity of 75 µM equimolar mixtures of Gag-NtD and Env peptide, absorbance at 280 nm; bound fraction from the integrated absorbance of the 3S species in C(S); details: both partners purified
[12] = target: T2, PFV-Gag-NtD (amino terminal domain of Prototypic Foamy Virus Gag, residues 1-179) (Prototypic foamy virus (PFV), UniProt P14349 1-179); assay: AUC
T2 chain: B1 chain

FFV-Gag-NtD (feline foamy virus Gag residues 1-154), His tag removed (domain or fragment)
stoichiometry N [1]: 2

FFV Gag (from UniProt O56860)
Kd [2]: 15.4 µM

MAPPMTLQQWIIWKKMNKAH [Env1–20]
Kd [3]: 6.67 µM

FFV-Gag-NtD (feline foamy virus Gag residues 1-154), His-tagged (domain or fragment)
stoichiometry N [4]: 2
stoichiometry N [5]: 2

B1
stoichiometry N [6]: 2

B2
Gag-Env binding (in words) [7]: reduced binding to an undetectable level

B3
ƒ/ƒ0 (D20,w) [8]: 1.52
ƒ/ƒ0 (S20,w) [8]: 1.48
sedimentation coefficient S20,w [8]: 3.08
D20,w (×10^7) [8]: 5.96±0.04 cm^2 sec^−1
Mw C(S) [8]: 48.2±1 kD
S20,w (×10^13) [8]: 3.08±0.02 sec
Mw (S/D) [8]: 46.7±0.2 kD
ƒ/ƒ0 C(S) [8]: 1.54
weight averaged molecular weight, sedimentation equilibrium [9]: 44 kDa
Mw (sedimentation equilibrium) ([9]; Crange 30–100 µM, His-tagged): 44±2 kD
solution molecular weight (SEC-MALLS) [10]: 40.0 kDa

B4
reduction of Gag-Env affinity (fold) ([7]; 75 µM equimolar Gag-NtD mutant and Env1–20, relative to wt PFV-Gag-NtD): twenty-fold

B5
Gag-Env binding (in words) [7]: little effect on Env binding

B6
ƒ/ƒ0 (D20,w) [8]: 1.42
ƒ/ƒ0 (S20,w) [8]: 1.49
sedimentation coefficient S20,w [8]: 2.72
D20,w (×10^7) [8]: 6.81±0.3 cm^2 sec^−1
Mw C(S) [8]: 37.4±1 kD
S20,w (×10^13) [8]: 2.72±0.01 sec
Mw (S/D) [8]: 36.1±1.5 kD
ƒ/ƒ0 C(S) [8]: 1.47
weight averaged molecular weight, sedimentation equilibrium [9]: 33.7 kDa
Mw (sedimentation equilibrium) ([9]; Crange 14–50 µM, FFV-154 sample with the His tag removed): ^h33.7±1 kD
solution molecular weight (SEC-MALLS) [10]: 34.0 kDa

B7
Ka [11]: 20000 M⁻¹
Kd [12]: 49.4 µM
